Results taken from US20230242658A1 (published 2023).
Positions count from the first letter of the chain named. Numbers in names are those of the source. Values belong to the binder of their own block, whether it stands above or below them.

Experiments:
[1] = target: T1, human PD-L1 on CHO-K1 cells (human, UniProt Q9NZQ7 19-290); test: FACS, CHO-K1/hPD-L1 cells
T1 construct: whole, on cells; also called CHO-K1/hPDL1; CHO-K1/hPD-L1

[2] = target: T2, human 4-1BB on CHO-K1 cells (human, UniProt Q07011 24-255); test: FACS, CHO-K1/hu4-1BB cells
T2 construct: whole, on cells; also called CHO-K1/hu 4-1BB; CHO-K1/hu4-1BB
T2 sequence (Q07011 24-255): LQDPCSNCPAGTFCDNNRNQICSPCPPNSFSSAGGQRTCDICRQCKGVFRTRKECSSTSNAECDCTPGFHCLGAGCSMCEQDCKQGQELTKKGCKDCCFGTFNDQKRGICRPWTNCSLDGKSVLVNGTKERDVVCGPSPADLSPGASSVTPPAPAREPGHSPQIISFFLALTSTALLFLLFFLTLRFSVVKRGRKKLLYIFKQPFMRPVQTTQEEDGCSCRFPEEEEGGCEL
Procedure: The binding abilities of the antibody molecules to a CHO-K1 cell strain highly expressing human 4-1BB (CHO-K1/hu4-1BB, GenScript, M00538) and a CHO-K1 cell strain highly expressing cynomolgus monkey 4-1BB (CHO-K1/cyno4-1BB, GenScript, M00569) were determined by flow cytometry FACS. Specifically, the cells were digested and resuspended in a complete medium, and the cell density was adjusted to 2×10⁶ cells/mL. Then, the cells were seeded in a 96-well V-bottom plate (Corning, #3894) at 100 μL/well (2×10⁵ cells/well) and centrifuged at 4° C. for 5 min, and the supernatant was discarded. Then, the serially diluted antibody molecules were added to the 96-well plate at 100 μL/well, and the mixtures were well mixed. The antibody molecules might serially diluted 3-fold from the highest final concentration 200 nM to obtain a total of 12 concentrations. hIgG1 iso (CrownBio, #C0001) was used as an isotype control. The cells were incubated at 4° C. for 1 h away from light. Then, the cells in each well were rinsed twice with 100 μL of pre-cooled FACS buffer (PBS buffer containing 0.5% BSA) and centrifuged at 500 g at 4° C. for 5 min, and then the supernatant was discarded. […] Then, the cells in each well were then rinsed twice with 200 μL of pre-cooled FACS buffer and centrifuged at 500 g at 4° C. for 5 min, and then the supernatant was discarded. Finally, a pre-cooled FACS buffer was added at 200 μL/well to resuspend the cells. The fluorescence signal values were read using a BD FACS CANTOII flow cytometer.

T1 sequence (Q9NZQ7 19-290): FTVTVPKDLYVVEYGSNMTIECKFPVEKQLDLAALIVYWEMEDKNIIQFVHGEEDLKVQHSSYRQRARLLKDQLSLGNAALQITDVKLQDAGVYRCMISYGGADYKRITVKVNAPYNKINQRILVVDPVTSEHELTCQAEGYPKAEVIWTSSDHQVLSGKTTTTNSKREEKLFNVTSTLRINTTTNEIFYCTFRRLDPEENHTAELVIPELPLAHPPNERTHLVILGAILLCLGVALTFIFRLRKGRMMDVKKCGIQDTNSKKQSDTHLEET

B3: PR007136 (bispecific antibody, human IgG1, kappa)
light: DIQMTQSPSTLSASVGDRVTVTCRASQSIYIWLAWYQQKPGKAPNLLIYKASSLETGVPSRFSGSGSGTEFTLTISSLQPDDFATYYCQQYYGSSRTFGQGTKVEIKRTVAAPSVFIFPPSDEQLKSGTASVVCLLNNFYPREAKVQWKVDNALQSGNSQESVTEQDSKDSTYSLSSTLTLSKADYEKHKVYACEVTHQGLSSPVTKSFNRGEC
heavy: EVQLVESGGGLVQPGGSLRLSCAASGFTFSSYWMSWVRQAPGKGLEWVANIKQEGSEKYYVDSVKGRFTISRDNAKNSLYLQMNSLRAEDTAVYYCARDRAVAGAFDIWGQGTMVTVSSASTKGPSVFPLAPSSKSTSGGTAALGCLVKDYFPEPVTVSWNSGALTSGVHTFPAVLQSSGLYSLSSVVTVPSSSLGTQTYICNVNHKPSNTKVDKKVEPKSCDKTHTCPPCPAPEAAGAPSVFLFPPKPKDTLMISRTPEVTCVVVDVSHEDPEVKFNWYVDGVEVHNAKTKPREEQYNSTYRVVSVLTVLHQDWLNGKEYKCKVSNKALPAPIEKTISKAKGQPREPQVYTLPPSREEMTKNQVSLTCLVKGFYPSDIAVEWESNGQPENNYKTTPPVLDSDGSFFLYSKLTVDKSRWQQGNVFSCSVMHEALHNHYTQKSLSLSPGGGSGGSEVQLVESGGGLVKPGGSLRLSCAASGFTFSDYYMSWFRQAPGKGLEWVSYISSSGSTQDYADSVKGRFTISRDNAKNSLYLQMNSLRAEDTAVYYCAREREPVAGTLDFDNWGQGTPVTVSS
notes: PD-L1x4-1BB IgG-VH: PR000265 + VH of PR007289 at heavy-chain C-terminus
binding result [1]: binds
binding result [2]: binds

B4: PR007130 (bispecific antibody, human IgG1, kappa)
light: B3 light
heavy: EVQLVESGGGLVQPGGSLRLSCAASGFTFSSYWMSWVRQAPGKGLEWVANIKQEGSEKYYVDSVKGRFTISRDNAKNSLYLQMNSLRAEDTAVYYCARDRAVAGAFDIWGQGTMVTVSSASTKGPSVFPLAPSSKSTSGGTAALGCLVKDYFPEPVTVSWNSGALTSGVHTFPAVLQSSGLYSLSSVVTVPSSSLGTQTYICNVNHKPSNTKVDKKVEPKSCDKTHTCPPCPAPEAAGAPSVFLFPPKPKDTLMISRTPEVTCVVVDVSHEDPEVKFNWYVDGVEVHNAKTKPREEQYNSTYRVVSVLTVLHQDWLNGKEYKCKVSNKALPAPIEKTISKAKGQPREPQVYTLPPSREEMTKNQVSLTCLVKGFYPSDIAVEWESNGQPENNYKTTPPVLDSDGSFFLYSKLTVDKSRWQQGNVFSCSVMHEALHNHYTQKSLSLSPGGGSGGSEVQLLESGGGLVQPGGSLRLSCAASGFTFSNYAMSWFRQPPETGLKWVSSIDASGGDTYYADSVKGRFTISRDNSKNTLYLQMNSLRAEDTAVYYCAKEGSHGTDDSHYDVDVWGQGTTVTVSS
notes: PD-L1x4-1BB IgG-VH: PR000265 + VH of PR004469 at heavy-chain C-terminus
binding result [1]: binds
binding result [2]: binds

B7: PR007135 (bispecific antibody, human IgG1, kappa)
light: B3 light
heavy: B3 heavy with S507G, T511I, Q512I, A551S, P556A, N565Y, P571L
notes: PD-L1x4-1BB IgG-VH: PR000265 + VH of PR007288 at heavy-chain C-terminus
binding result [1]: binds
binding result [2]: binds

B8: PR007139 (bispecific antibody, human IgG1, kappa)
light: B3 light
heavy: B3 heavy with F491I, Q512I, P556E, F563Y, P571L
notes: PD-L1x4-1BB IgG-VH: PR000265 + VH of PR007292 at heavy-chain C-terminus
binding result [1]: binds
binding result [2]: binds

B10: PR003551 (bispecific antibody, human IgG1, kappa, L234A L235A)
light: B3 light
heavy: EVQLVESGGGLVQPGGSLRLSCAASGFTFSSYWMSWVRQAPGKGLEWVANIKQEGSEKYYVDSVKGRFTISRDNAKNSLYLQMNSLRAEDTAVYYCARDRAVAGAFDIWGQGTMVTVSSASTKGPSVFPLAPSSKSTSGGTAALGCLVKDYFPEPVTVSWNSGALTSGVHTFPAVLQSSGLYSLSSVVTVPSSSLGTQTYICNVNHKPSNTKVDKKVEPKSCDKTHTCPPCPAPEAAGGPSVFLFPPKPKDTLMISRTPEVTCVVVDVSHEDPEVKFNWYVDGVEVHNAKTKPREEQYNSTYRVVSVLTVLHQDWLNGKEYKCKVSNKALGAPIEKTISKAKGQPREPQVYTLPPSREEMTKNQVSLTCLVKGFYPSDIAVEWESNGQPENNYKTTPPVLDSDGSFFLYSKLTVDKSRWQQGNVFSCSVMHEALHNHYTQKSLSLSPGEPKSSDKTHTPPPPPRTEVQLLESGGGLVQPGGSLRLSCAASGFIFSNFAMTWVRQPPEKGLKWVSSINGSGFNTYYTDSVKGRFTISRDNSRNTLYLQMNRLTAEDTAVYFCAKEGSSETDDHYYNVDVWGQGTTVTVSS
notes: PD-L1x4-1BB IgG-VH: PR000265 + VH of PR001836 at heavy-chain C-terminus
binding result [1]: binds
binding result [2]: binds

Results, then the binder that gave them:

binding result [1]: binds
B1: PR004270 (bispecific antibody, human IgG1)
chain 1: EVQLVESGGGLVQPGGSLRLSCAASGFTFSSYWMSWVRQAPGKGLEWVANIKQEGSEKYYVDSVKGRFTISRDNAKNSLYLQMNSLRAEDTAVYYCARDRAVAGAFDIWGQGTMVTVSSASTKGPSVFPLAPSSKSTSGGTAALGCLVKDYFPEPVTVSWNSGALTSGVHTFPAVLQSSGLYSLSSVVTVPSSSLGTQTYICNVNHKPSNTKVDKKVEPKSC
chain 2: not shown
notes: PD-L1x4-1BB Fab-HCAb symmetric structure: Fab of PR000265, VH of PR001760, human IgG1 (L234A, L235A)

binding result [1]: binds
binding result [2]: binds
B2: PR003549 (bispecific antibody, human IgG1, kappa, L234A L235A)
light: B3 light
heavy: EVQLVESGGGLVQPGGSLRLSCAASGFTFSSYWMSWVRQAPGKGLEWVANIKQEGSEKYYVDSVKGRFTISRDNAKNSLYLQMNSLRAEDTAVYYCARDRAVAGAFDIWGQGTMVTVSSASTKGPSVFPLAPSSKSTSGGTAALGCLVKDYFPEPVTVSWNSGALTSGVHTFPAVLQSSGLYSLSSVVTVPSSSLGTQTYICNVNHKPSNTKVDKKVEPKSCDKTHTCPPCPAPEAAGGPSVFLFPPKPKDTLMISRTPEVTCVVVDVSHEDPEVKFNWYVDGVEVHNAKTKPREEQYNSTYRVVSVLTVLHQDWLNGKEYKCKVSNKALGAPIEKTISKAKGQPREPQVYTLPPSREEMTKNQVSLTCLVKGFYPSDIAVEWESNGQPENNYKTTPPVLDSDGSFFLYSKLTVDKSRWQQGNVFSCSVMHEALHNHYTQKSLSLSPGEPKSSDKTHTPPPPPRTEVQLLESGGGLVQLGGSLRLSCAASGFTFSRYAMTWVRQAPEKGLEWVSSISGSGDDTYYGDSVKGRFTISRDNSQNTVYLQMNSLRAEDTAVYFCAKEKAGTTGDYYYNVDVWGQGTTVTVSS
notes: PD-L1x4-1BB IgG-VH: PR000265 + VH of PR001758 at heavy-chain C-terminus

binding result [1]: binds
binding result [2]: binds
B5: PR007132 (bispecific antibody, human IgG1, kappa)
light: B3 light
heavy: EVQLVESGGGLVQPGGSLRLSCAASGFTFSSYWMSWVRQAPGKGLEWVANIKQEGSEKYYVDSVKGRFTISRDNAKNSLYLQMNSLRAEDTAVYYCARDRAVAGAFDIWGQGTMVTVSSASTKGPSVFPLAPSSKSTSGGTAALGCLVKDYFPEPVTVSWNSGALTSGVHTFPAVLQSSGLYSLSSVVTVPSSSLGTQTYICNVNHKPSNTKVDKKVEPKSCDKTHTCPPCPAPEAAGAPSVFLFPPKPKDTLMISRTPEVTCVVVDVSHEDPEVKFNWYVDGVEVHNAKTKPREEQYNSTYRVVSVLTVLHQDWLNGKEYKCKVSNKALPAPIEKTISKAKGQPREPQVYTLPPSREEMTKNQVSLTCLVKGFYPSDIAVEWESNGQPENNYKTTPPVLDSDGSFFLYSKLTVDKSRWQQGNVFSCSVMHEALHNHYTQKSLSLSPGGGSGGSEVQLVESGGGLVKPGGSLRLSCAASGFTFSDYYMSWIRQAPGKGLEWVSYISSSGSTIYYADSVKGRFTISRDNAKNSLYLQMNSLRAEDTAVYYCARVKPVAGTWDWFDPWGQGTPVTVSS
notes: PD-L1x4-1BB IgG-VH: PR000265 + VH of PR007286 at heavy-chain C-terminus

binding result [1]: binds
B6: PR004268 (bispecific antibody, human IgG1, kappa, L234A L235A)
light: B3 light
heavy: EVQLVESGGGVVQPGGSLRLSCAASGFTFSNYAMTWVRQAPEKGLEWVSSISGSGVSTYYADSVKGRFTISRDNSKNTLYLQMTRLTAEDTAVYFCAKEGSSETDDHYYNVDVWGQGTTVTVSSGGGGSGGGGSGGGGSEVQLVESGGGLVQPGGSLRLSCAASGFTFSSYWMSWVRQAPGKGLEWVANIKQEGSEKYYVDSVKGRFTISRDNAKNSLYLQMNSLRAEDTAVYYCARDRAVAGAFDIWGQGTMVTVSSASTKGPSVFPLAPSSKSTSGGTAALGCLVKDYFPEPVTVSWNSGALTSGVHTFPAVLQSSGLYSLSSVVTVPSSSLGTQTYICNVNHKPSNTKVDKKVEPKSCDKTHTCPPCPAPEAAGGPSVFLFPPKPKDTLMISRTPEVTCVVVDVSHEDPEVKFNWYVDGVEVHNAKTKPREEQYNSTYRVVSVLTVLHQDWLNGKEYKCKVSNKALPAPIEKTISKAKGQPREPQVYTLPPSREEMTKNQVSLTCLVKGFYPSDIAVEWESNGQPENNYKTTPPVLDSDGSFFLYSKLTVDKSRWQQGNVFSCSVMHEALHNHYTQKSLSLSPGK
notes: PD-L1x4-1BB IgG-VH: VH of PR001760 at heavy-chain N-terminus of PR000265, linker GS_15

binding result [1]: binds
binding result [2]: binds
B9: PR007133 (bispecific antibody, human IgG1, kappa)
light: B3 light
heavy: B3 heavy with V459E, T511I, Q512T, S517A, T523N, P556A, P571L
notes: PD-L1x4-1BB IgG-VH: PR000265 + VH of PR007287 at heavy-chain C-terminus

binding result [1]: binds
binding result [2]: binds
B11: PR007137 (bispecific antibody, human IgG1, kappa)
light: B3 light
heavy: B3 heavy with L465V, K467Q, G470R, S510T, Q512I, P556E, N565Y
notes: PD-L1x4-1BB IgG-VH: PR000265 + VH of PR007290 at heavy-chain C-terminus
